# Results: the supplement of paper PMC10126150
# ± gives the standard deviation of the averaged measurements.
# System: ATP
# Experiment: switch fluorescence ratio, 500 uM ATP over buffer (Cy3 cluster intensity, sum of 5 cycles each) (fold (ratio)); higher = stronger signal-on switching upon ATP binding; sequences stand for … in TCGTCGGCAGCGTCAGATGTGTATAAGAGACAGTTTTTTTTTTTTTTTTTTTTTTTTT…TC
# Conditions: aptamer strand: ATP DNA aptamer (quencher-CACCTGGGGGAGTATTGCGGAGGAAGG + anchor), 100 nM annealed; ATP concentration: 500 uM
# Procedure, shortened: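 Clusters carrying Cy3-labelled switching strands on a modified Illumina MiSeq flow-cell were annealed to 100 nM quencher-labelled ATP aptamer and imaged in selection buffer. They were imaged again after 15 min with 500 uM ATP at 22 °C, over five buffer/ATP cycles with NaOH stripping and re-annealing in between. For each cluster, the fluorescence ratio is the summed Cy3 intensity of the target cycles divided by that of the buffer cycles, averaged per switch-domain sequence. Clusters outside 100-1000 RFU were left out.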
# 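Note: ATP exposure 15 min at 22 °C before imaging.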
row,Sequence,switch fluorescence ratio
1,GGATAAGGAG,0.99 ± 0.051
2,GGATACGGTG,1.08 ± 0.061
3,GGATACGTTG,1.02 ± 0.052
4,GGATAGATGG,0.986 ± 0.02
5,GGATAGGATT,1.025 ± 0.0054
6,GGATAGTCGG,1 ± 0.028
7,GGATATAATG,0.985 ± 0.019
8,GGATATAGCC,0.994 ± 0.013
9,GGATATGATC,1.03 ± 0.031
10,GGATCCGTTG,0.978 ± 0.021
11,GGATCGTCGG,0.96 ± 0.019
12,GGATCGTTCC,1.1 ± 0.017
13,GGATCTTAGT,0.996 ± 0.013
14,GGATCTTTAT,0.9932 ± 0.0096
15,GGATGAGTGT,0.982 ± 0.038
16,GGATGCAATG,1.16 ± 0.025
17,GGATGCATAT,0.9894 ± 0.0044
18,GGATGGCGGT,0.9846 ± 0.0069
19,GGATGGGAGG,1.046 ± 0.0092
20,GGATGGGGCT,1.02 ± 0.03
21,GGATGGGGGA,1.02 ± 0.03
22,GGATGGGTGC,0.9939 ± 0.0091
23,GGATGGTTGG,1.012 ± 0.0068
24,GGATGTATCT,0.995 ± 0.012
25,GGATGTGCG,0.961 ± 0.05

row,Sequence,switch fluorescence ratio
1,GGATGTTTTG,1.03 ± 0.015
2,GGATTAAAGG,1.03 ± 0.013
3,GGATTAAATT,0.9996 ± 0.0019
4,GGATTAACTA,0.9887 ± 0.0061
5,GGATTAATG,1.1 ± 0.12
6,GGATTAGGGA,1.01 ± 0.03
7,GGATTCATGG,1.01 ± 0.021
8,GGATTCCGGG,0.988 ± 0.027
9,GGATTTAAAT,0.976 ± 0.042
10,GGATTTATTG,1.02 ± 0.022
11,GGATTTGAGG,1 ± 0.026
12,GGATTTGGAG,0.993 ± 0.024
13,GGATTTGGGG,0.9878 ± 0.0073
14,GGATTTGGTA,0.978 ± 0.032
15,GGATTTGTGA,1.02 ± 0.022
16,GGCAAAGCGT,1.03 ± 0.025
17,GGCAAAGGGG,1.01 ± 0.041
18,GGCAACCATA,1.02 ± 0.032
19,GGCAACGAAA,1.039 ± 0.0099
20,GGCAATATTT,1.2 ± 0.061
21,GGCAATTGTA,1.03 ± 0.027
22,GGCACAGATG,1.02 ± 0.015
23,GGCAGAAATG,0.994 ± 0.011
24,GGCAGAATAA,1.05 ± 0.13
25,GGCAGAGATC,1.06 ± 0.077

row,Sequence,switch fluorescence ratio
1,GGCAGATGAC,0.9674 ± 0.0031
2,GGCAGCCGGC,1.03 ± 0.041
3,GGCAGCGTGG,0.994 ± 0.041
4,GGCAGCTTTT,1.05 ± 0.088
5,GGCAGGAAAG,1 ± 0.011
6,GGCAGGCGGA,1 ± 0.012
7,GGCAGGGCTG,0.974 ± 0.051
8,GGCAGGGGCT,1 ± 0.044
9,GGCAGTCCGG,0.9876 ± 0.0024
10,GGCAGTTTGG,1.01 ± 0.023
11,GGCATAAGTA,1.008 ± 0.0054
12,GGCATAGCCC,0.954 ± 0.024
13,GGCATATTGT,0.985 ± 0.025
14,GGCATCGGTT,0.977 ± 0.027
15,GGCATCGTAG,0.998 ± 0.021
16,GGCATGAGGT,1 ± 0.016
17,GGCATTAGGT,0.977 ± 0.042
18,GGCATTTAAA,0.983 ± 0.024
19,GGCATTTTAT,1.01 ± 0.061
20,GGCCAATAAT,0.991 ± 0.016
21,GGCCAGGGTG,2.29 ± 0.07
22,GGCCCCCGGT,1.1 ± 0.068
23,GGCCCCGGAT,1 ± 0.07
24,GGCCCGATTT,1.01 ± 0.024
25,GGCCCGCGTT,1.11 ± 0.065

row,Sequence,switch fluorescence ratio
1,GGCCCGGTTT,0.99 ± 0.029
2,GGCCCGTGCA,1.004 ± 0.0015
3,GGCCCTGCGG,1.02 ± 0.025
4,GGCCGAGGTC,1.02 ± 0.013
5,GGCCGATTTT,0.9813 ± 0.0042
6,GGCCGTATCT,1.03 ± 0.044
7,GGCCTGAAAC,0.9929 ± 0.0037
8,GGCCTGGATC,1.02 ± 0.057
9,GGCCTGGGTA,1 ± 0.031
10,GGCCTGGGTT,0.967 ± 0.0098
11,GGCCTGGTTT,1.03 ± 0.057
12,GGCCTGTGTG,1.02 ± 0.041
13,GGCCTTAGGG,0.987 ± 0.013
14,GGCCTTATTG,1 ± 0.031
15,GGCCTTGTGT,1.0357 ± 0.00094
16,GGCGAAGGCC,0.973 ± 0.02
17,GGCGAATGGG,0.98 ± 0.041
18,GGCGAGCTGG,0.9997 ± 0.0034
19,GGCGAGGTGT,1 ± 0.034
20,GGCGAGTATG,0.9522 ± 0.0037
21,GGCGCAACGG,1.05 ± 0.024
22,GGCGCAATTT,2.4 ± 0.27
23,GGCGCCGGGC,1.02 ± 0.022
24,GGCGCCGTTG,0.978 ± 0.019
25,GGCGCCGTTT,0.986 ± 0.023

row,Sequence,switch fluorescence ratio
1,GGCGCTGTGA,1.01 ± 0.022
2,GGCGCTTATA,1 ± 0.042
3,GGCGGCATCT,1.01 ± 0.023
4,GGCGGCCGAT,0.9707 ± 0.005
5,GGCGGCGCGT,1.04 ± 0.019
6,GGCGGGAGGA,1.02 ± 0.025
7,GGCGGGGAGG,1.01 ± 0.033
8,GGCGGGGCTT,0.968 ± 0.025
9,GGCGGGGGTG,1.04 ± 0.065
10,GGCGGGTAGA,1.043 ± 0.0093
11,GGCGGTTAAG,1.013 ± 7.9e-05
12,GGCGGTTACT,1.04 ± 0.015
13,GGCGTACAAA,0.985 ± 0.019
14,GGCGTCAGAC,1 ± 0.031
15,GGCGTCAGGA,1.01 ± 0.027
16,GGCGTCCTCT,1.05 ± 0.034
17,GGCGTCTTCC,1.01 ± 0.037
18,GGCGTGTTGG,1.02 ± 0.045
19,GGCGTTGTCC,1.02 ± 0.044
20,GGCGTTGTTC,0.984 ± 0.034
21,GGCGTTTATC,0.9746 ± 0.0018
22,GGCTAAAAAC,1 ± 0.039
23,GGCTAAAGCG,0.974 ± 0.012
24,GGCTACAGGG,0.999 ± 0.011
25,GGCTAGAAAA,1 ± 0.0099

row,Sequence,switch fluorescence ratio
1,GGCTAGACGT,1.031 ± 0.0023
2,GGCTATCTGT,1 ± 0.047
3,GGCTCAGAGA,1.004 ± 0.0045
4,GGCTCAGGTA,1.04 ± 0.013
5,GGCTCATTAT,0.9719 ± 0.0034
6,GGCTCGGGGG,1.03 ± 0.029
7,GGCTCTCGTA,0.992 ± 0.012
8,GGCTCTTCGG,0.989 ± 0.04
9,GGCTGAGCGG,0.976 ± 0.027
10,GGCTGCCGGG,1.02 ± 0.025
11,GGCTGCTTTC,1.03 ± 0.055
12,GGCTGGATGG,0.961 ± 0.014
13,GGCTGGCATT,1.11 ± 0.15
14,GGCTGGGCGA,0.983 ± 0.02
15,GGCTGTGTTT,0.981 ± 0.028
16,GGCTTAATGG,1.01 ± 0.023
17,GGCTTCTGAT,0.999 ± 0.022
18,GGCTTGGAAA,0.973 ± 0.011
19,GGCTTGGAAT,0.989 ± 0.011
20,GGCTTGGGAA,0.968 ± 0.027
21,GGCTTGGGGC,0.9756 ± 0.0032
22,GGCTTGGGTG,1.08 ± 0.032
23,GGCTTGGTGT,1 ± 0.013
24,GGCTTTTTGG,0.99 ± 0.02
25,GGCTTTTTTA,1.05 ± 0.028

row,Sequence,switch fluorescence ratio
1,GGGAAAAGGA,1.018 ± 0.0094
2,GGGAAAAGGT,1.04 ± 0.021
3,GGGAAAATTA,0.997 ± 0.019
4,GGGAAACGGT,1.03 ± 0.011
5,GGGAAACTTG,0.988 ± 0.017
6,GGGAAAGGAA,0.989 ± 0.018
7,GGGAAAGGGG,1.01 ± 0.02
8,GGGAAAGTCG,1 ± 0.036
9,GGGAACATTT,1.022 ± 0.0086
10,GGGAACGTCG,1.011 ± 0.01
11,GGGAACGTGT,0.997 ± 0.019
12,GGGAAGAAGC,0.997 ± 0.054
13,GGGAAGAGTG,0.993 ± 0.02
14,GGGAAGATTA,0.966 ± 0.031
15,GGGAAGGTGT,1.1 ± 0.11
16,GGGAAGGTTG,1.04 ± 0.021
17,GGGAAGTATA,1 ± 0.027
18,GGGAAGTCGT,0.964 ± 0.039
19,GGGAATACTA,1.38 ± 0.37
20,GGGAATAGT,0.9898 ± 0.0014
21,GGGAATGCTA,0.9999 ± 0.0068
22,GGGAATGTAT,0.979 ± 0.037
23,GGGAATTATA,0.984 ± 0.018
24,GGGAATTCTA,0.991 ± 0.021
25,GGGAATTGGG,0.997 ± 0.018

row,Sequence,switch fluorescence ratio
1,GGGAATTGTG,0.993 ± 0.06
2,GGGACCAATT,1 ± 0.022
3,GGGACGACAG,1.04 ± 0.031
4,GGGACGATTG,0.985 ± 0.059
5,GGGACGGATT,1 ± 0.021
6,GGGACTAGTG,1 ± 0.029
7,GGGACTGGTA,1 ± 0.049
8,GGGACTTACC,1.08 ± 0.02
9,GGGACTTGGA,0.9765 ± 0.009
10,GGGACTTTTT,0.999 ± 0.043
11,GGGAGAAAAG,0.984 ± 0.014
12,GGGAGAATGG,0.98 ± 0.028
13,GGGAGACCAA,0.9822 ± 0.0031
14,GGGAGAGAAC,0.992 ± 0.012
15,GGGAGAGAGT,0.999 ± 0.029
16,GGGAGAGCGG,0.9662 ± 0.0095
17,GGGAGAGGCT,0.9764 ± 0.0016
18,GGGAGATAGC,1.06 ± 0.015
19,GGGAGATTAG,0.979 ± 0.015
20,GGGAGCAGGG,0.909 ± 0.058
21,GGGAGCCGGT,1.02 ± 0.015
22,GGGAGCCTAC,1.038 ± 0.0081
23,GGGAGCCTTC,1.01 ± 0.031
24,GGGAGCGGGT,1.04 ± 0.025
25,GGGAGCTACA,1.02 ± 0.017
